From US20260250420A1 (SICHUAN KELUN BIOTECH BIOPHARMACEUTICAL, published 2026)

T1: monkey PTK7 protein (extracellular sequence of monkey PTK7 with C-terminal 6×His tag) (monkey)
T1 chain: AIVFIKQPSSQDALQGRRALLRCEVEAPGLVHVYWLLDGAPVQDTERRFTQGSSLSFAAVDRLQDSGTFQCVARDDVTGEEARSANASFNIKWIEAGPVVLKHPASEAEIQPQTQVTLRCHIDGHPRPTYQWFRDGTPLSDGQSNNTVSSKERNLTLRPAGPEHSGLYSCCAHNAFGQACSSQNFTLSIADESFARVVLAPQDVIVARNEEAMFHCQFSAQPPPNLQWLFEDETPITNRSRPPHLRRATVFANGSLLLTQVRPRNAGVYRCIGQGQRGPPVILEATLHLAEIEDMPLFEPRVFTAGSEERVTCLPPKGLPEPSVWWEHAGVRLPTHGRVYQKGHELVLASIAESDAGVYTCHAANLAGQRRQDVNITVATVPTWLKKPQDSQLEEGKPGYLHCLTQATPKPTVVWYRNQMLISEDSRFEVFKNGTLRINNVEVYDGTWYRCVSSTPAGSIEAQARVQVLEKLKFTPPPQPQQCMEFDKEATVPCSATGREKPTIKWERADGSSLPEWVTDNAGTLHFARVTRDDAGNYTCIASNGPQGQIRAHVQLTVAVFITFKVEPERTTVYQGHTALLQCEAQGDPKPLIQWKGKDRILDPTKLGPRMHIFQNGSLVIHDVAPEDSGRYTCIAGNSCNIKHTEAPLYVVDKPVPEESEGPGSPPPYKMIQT

T2: human Fc receptor protein CD32b (human, UniProt P31994 43-217, biotinylated)
T2 construct: Biotinylated protein captured on SA sensors
T2 sequence (looked up): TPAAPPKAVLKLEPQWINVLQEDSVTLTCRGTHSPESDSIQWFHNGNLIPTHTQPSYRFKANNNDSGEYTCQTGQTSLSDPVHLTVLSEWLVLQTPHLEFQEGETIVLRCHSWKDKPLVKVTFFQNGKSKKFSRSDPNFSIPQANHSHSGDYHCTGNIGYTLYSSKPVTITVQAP

T3: human Fc receptor protein CD32a (human, UniProt P12318 34-217, biotinylated)
T3 construct: Biotinylated protein captured on SA sensors
T3 sequence (looked up): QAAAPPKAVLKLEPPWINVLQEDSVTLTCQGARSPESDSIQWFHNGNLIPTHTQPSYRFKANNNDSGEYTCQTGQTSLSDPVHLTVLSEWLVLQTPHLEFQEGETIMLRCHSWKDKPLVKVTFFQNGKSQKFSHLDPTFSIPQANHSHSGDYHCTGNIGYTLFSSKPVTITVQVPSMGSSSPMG


How the values were obtained:
[1] = target: T1, monkey PTK7 protein (extracellular …); experiment: ELISA, coated monkey PTK7 protein
[2] = target: T4, rat PTK7 protein (extracellular sequence of rat PTK7 with C-terminal 6×His tag) (rat, UniProt A0A8I6ALM9 40-713); experiment: ELISA, coated rat PTK7 protein
T4 construct: extracellular domain; Expressed transiently in HEK293 cells

[3] = target: T5, human Fc receptor protein CD16a (human, UniProt P08637 17-208, biotinylated); experiment: BLI (ForteBio), biotinylated receptor on SA sensor, antibody from 5,000 nM, 1:1 global fit
T5 construct: Biotinylated protein captured on SA sensors
From the text: (§1) The dynamic affinity of the antibodies 101A6HZ, 101A6HZm and Hu24 with human Fc receptor proteins CD16a, CD32a, CD32b, CD64 and FcRn was detected through ForteBio (Pall life sciences).

[4] = target: T6, human Fc receptor protein CD64 (human, UniProt P12314 16-292, limits assumed, biotinylated); experiment: as above
T6 construct: Biotinylated protein captured on SA sensors
From the text: as §1

[5] = target: T2, human Fc receptor protein CD32b; experiment: as above
From the text: as §1

[6] = target: T3, human Fc receptor protein CD32a; experiment: as above
From the text: as §1

T6 sequence (P12314 16-292 limits assumed): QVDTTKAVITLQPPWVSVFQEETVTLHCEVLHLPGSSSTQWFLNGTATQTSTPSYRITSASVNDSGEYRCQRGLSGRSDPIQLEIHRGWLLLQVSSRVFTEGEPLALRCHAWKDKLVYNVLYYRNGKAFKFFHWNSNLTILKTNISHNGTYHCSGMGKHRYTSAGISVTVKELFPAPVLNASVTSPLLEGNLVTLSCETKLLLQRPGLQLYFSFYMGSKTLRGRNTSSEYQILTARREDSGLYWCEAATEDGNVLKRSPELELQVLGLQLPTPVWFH
T5 sequence (P08637 17-208 limits assumed): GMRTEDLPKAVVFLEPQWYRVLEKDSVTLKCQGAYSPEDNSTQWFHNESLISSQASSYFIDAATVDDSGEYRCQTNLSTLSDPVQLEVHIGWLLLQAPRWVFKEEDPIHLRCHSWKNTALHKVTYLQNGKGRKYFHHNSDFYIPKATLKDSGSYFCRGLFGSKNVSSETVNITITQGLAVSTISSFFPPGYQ

Row | Binder | EC50 [1] [µg/mL] | binding result [2] | Kd [3] [µM] | Kd [4] [µM] | Kd [5] [µM] | Kd [6] [µM]
1 | 101A6HZ (anti-human PTK7 humanized antibody) (antibody, human IgG1, kappa) heavy: not shown light: DIVMTQSPDSLAVSLGERATINCKASQDVGSAVIWYQQKPGQSPKLLIYWASTRHTGVPDRFSGSGSGTDFTLTISSLQAEDVAVYYCQQYSSYPLTFGQGTKLEIKRTVAAPSVFIFPPSDEQLKSGTASVVCLLNNFYPREAKVQWKVDNALQSGNSQESVTEQDSKDSTYSLSSTLTLSKADYEKHKVYACEVTHQGLSSPVTKSFNRGEC | 1.23 | no binding | 1.01 | 0.000508 | 1.78 | 2.27
2 | Hu24 (PTK7 control antibody, taken from Hu24 in the Patent CN201580030255) (antibody) chain 1: QVQLVQSGPEVKKPGASVKVSCKASGYTFTDYAVHWVRQAPGKRLEWIGVISTYNDYTYNNQDFKGRVTMTRDTSASTAYMELSRLRSEDTAVYYCARGNSYFYALDYWGQGTSVTVSS chain 2: EIVLTQSPATLSLSPGERATLSCRASESVDSYGKSFMHWYQQKPGQAPRLLIYRASNLESGIPARFSGSGSGTDFTLTISSLEPEDFAVYYCQQSNEDPWTFGGGTKLEIK | 0.134 | – | 1.19 | 0.000465 | 1.76 | 1.73
3 | 64A10HZ (anti-human PTK7 humanized antibody) (antibody, human IgG1, kappa, V domains shown, Human IgG1 heavy chain constant region and human Kappa light chain constant region; expressed in CHO-S cells) VH: QVQLQESGPGLVKPSETLSLTCTVSGFSLTSYGVYWVRQPPGKGPEWLGVIWTSGNTNYNPSLKSRLTISKDNSKNQVSLKLSSVTAADTAVYYCVKHDGGNYVGVMNYWGQGTLVTVSS VL: EIVMTQSPDFQSVTPKEKVTITCRASQSISDYLHWYQQKPDQSPKLLIKYASQSISGVPSRFSGSGSGSDFTLTINSLEAEDAATYYCQNGHSFPPTFGQGTKLEIKR | 0.0201 | no binding | – | – | – | –
